Experimental data published in patent publication US11066482B2, “Specific plasmin inactivation by anticatalytic antibody” (priority 2017, dated 2021).

Experiments:
[1] = target: protease domain of reduced human plasmin (Homo sapiens, UniProt P00747); test: Immunoblotting of reduced human plasmin; assay type: binding
Description: FIGS. 1A-1D show binding specificity and avidity of Pi for human plasmin. […] Relative migration of molecular standards (kDa) is shown. […] Wells of a microtiter plate were coated with native (wild-type, WT) or various microplasmin loop mutants (5 ug/ml). After blocking, Pi, a polyclonal rabbit anti-plasmin (plasmin Ab) or a non-reactive mouse (anti-digoxin, control) antibody (1 ug/ml) were added to wells. The bound antibodies (Pi, control) were detected by a secondary anti-mouse peroxidase (1:10,000) and the plasmin antibodies were detected by anti-rabbit peroxidase antibody (1:5,000) followed by TMB substrate with monitoring at A405. […] Wells of microtiter plate were coated with human plasminogen (2 ug/ml). After blocking and washing, various concentrations of purified Pi (shown) were added for 1 h. After washing the amount of antibody bound was detected by a secondary anti-mouse antibody followed by TMB substrate with monitoring at A405 nm. Data shown the means±SE of triplicate observations, experiments repeated at least twice. The data were analyzed with Graphpad Prism, r=0.95.

fibrinolytic bleeding = test: Fibrinolytic bleeding assay in vivo (humanized tail bleeding model); parameters: species or system mice; conditions: Pi 100 nmole/kg intravenously, mice given human plasminogen and plasminogen activator
Description: Anesthetized mice were treated in a randomized, blinded fashion with saline (Control), Pi (100 nmole/kg) or EACA (510 micromole/kg) intravenously. Human plasminogen (100 nmole/kg) and plasminogen activator (80,000 IU/kg) were given over 60 min. Tail bleeding was initiated 40 min. after the infusion. Tails were pre-warmed for 5 mins in 3 mL of 37° C. saline and bleeding was monitored as described.36,37 N=5-6, Means±SE are shown. *p<0.05, **p<0.01; ns, not significant. Kruskal Wallis one way ANOVA, Dunn's corrections.
Fibrinolytic bleeding assays in vivo. Anesthetized mice were treated in a randomized, blinded fashion with saline (Control), Pi (100 nmole/kg) or EACA (510 micromole/kg). Human plasminogen (100 nmole/kg) and plasminogen activator (80,000 IU/kg) were given over 60 min. Tail bleeding started 40 min. after the infusion. Tails were pre-warmed for 5 mins in 3 mL of 37° C. saline as described.(27, 28).
Suppression of fibrinolytic bleeding in vivo. The potential utility of the Pi for suppression of fibrinolytic bleeding was examined in vivo in randomized, blinded studies of surgical arterial and venous hemorrhage.

[2] = tested on: plasmin-mediated fibrinolysis of human fibrin clots; test: Fibrinolysis of 125I-fibrin human plasma clots with tPA, EACA vs Pi; assay type: biochemical; conditions: tPA 5 nM, 2.5 h; Pi 62.5 to 1000 nM, EACA 0.125 mM to 2 mM
human plasma clots = test: Clot lysis assay of Pi IgG, Fab and chimeric Fab, urokinase; assay type: biochemical; conditions: 25 nM-400 nM, 30 min
Description: FIGS. 4A-4D show comparative inhibition of factor V cleavage and human clot fibrinolysis (dissolution) by Pi, EACA and a2AP. […] The relative migration of molecular weight standards is shown (kDa). […] Human plasma was clotted with CaCl2 (10 mM) and thrombin (1 U/ml) in the presence of trace amounts of 1251 fibrinogen for 1 h at 37 deg. C. After washing in 1 ml of TBS pH 7.4, tPA (5 nM) was added in the presence of various amounts of Pi (62.5 to 1000 nM), EACA (0.125 mM to 2 mM) or no inhibitor. After 2.5 h the amount of fibrinolysis was determined by measuring the amount of 125I-fibrin dissolved in the supernatant. Means of duplicate observations are shown. […] Clots were formed as above in the presence of human plasminogen (2 uM) and a2AP (1 uM) or Pi (1 uM) and various amounts of tPA (0-10 nM). Clot dissolution was monitored in duplicate over 2 h in microtiter plate wells at A405 nm. […] The amount of clot lysis was determined as described in Methods.
The effects of Pi IgG, Fab or chimeric Fab were also compared in a clot lysis assay in microtiter plates. […] C. was monitored at 405 nm. The percent clot dissolution at 30 min. was determined as the percent change in peak turbidity from baseline=100%×(peak absorbance−30 min. absorbance)/(peak absorbance−baseline absorbance).

[3] = tested on: plasmin activity in hamster plasma; test: Plasmin activity in plasma after urokinase, S2251; assay type: biochemical; conditions: Pi 1 uM
Description: (§1) FIGS. 3A-3D show binding and inhibitory specificity of Pi. […] The effect of various concentrations of Pi (0-2000 nM) on clots formed with human, baboon or African green monkey plasmas. Clot lysis was measured in microtiter plates after addition of urokinase as described in Methods.
(§2) Specificity of plasmin inhibition. The effect of the Pi on different animal plasmins was examined after addition of the plasminogen activator urokinase. Various animal plasmas (5 ul) were mixed in microtiter plates in the presence of Pi (1 uM, 10 ul) or buffer, S2251 (10 ul, 0.5 mM final), urokinase (100 or 200 U) in a total volume of 100 ul with PBS. The plates were incubated at 37 deg. C. and the rate of plasmin generation was monitored by substrate cleavage at 405 nm for 1 hr.

[4] = target: T1, plasmin activity in dog plasma (Canis lupus familiaris, UniProt P80009); test: Plasmin activity in plasma after urokinase, S2251; assay type: biochemical; conditions: Pi 1 uM
T1 construct: from tissue; host or cells: dog plasma
Description: as §1, §2

[5] = target: T2, plasmin activity in rat plasma (Rattus norvegicus, UniProt Q01177); test: Plasmin activity in plasma after urokinase, S2251; assay type: biochemical; conditions: Pi 1 uM
T2 construct: from tissue; host or cells: rat plasma
Description: as §1, §2

[6] = tested on: plasmin activity in cat plasma; test: Plasmin activity in plasma after urokinase, S2251; assay type: biochemical; conditions: Pi 1 uM
Description: as §1, §2

[7] = target: T3, plasmin activity in bovine plasma (Bos taurus, UniProt P06868); test: Plasmin activity in plasma after urokinase, S2251; assay type: biochemical; conditions: Pi 1 uM
T3 construct: from tissue; host or cells: bovine plasma
Description: as §1, §2

[8] = tested on: plasmin activity in guinea pig plasma; test: Plasmin activity in plasma after urokinase, S2251; assay type: biochemical; conditions: Pi 1 uM
Description: as §1, §2

plasmin in human plasma = target: T4, plasmin in human plasma (Homo sapiens, UniProt P00747); test: Plasmin activity in plasma after urokinase, S2251; assay type: biochemical; conditions: Pi 1 uM
T4 construct: from tissue; host or cells: human plasma
Description: as §1, §2

[9] = target: T5, plasmin activity in pig plasma (Sus scrofa, UniProt P06867); test: Plasmin activity in plasma after urokinase, S2251; assay type: biochemical; conditions: Pi 1 uM
T5 construct: from tissue; host or cells: pig plasma
Description: as §1, §2

[10] = tested on: plasmin activity in gerbil plasma; test: Plasmin activity in plasma after urokinase, S2251; assay type: biochemical; conditions: Pi 1 uM
Description: as §1, §2

[11] = tested on: plasmin activity in rabbit plasma; test: Plasmin activity in plasma after urokinase, S2251; assay type: biochemical; conditions: Pi 1 uM
Description: as §1, §2

T1 sequence (P80009 with tags, fused parts or gaps): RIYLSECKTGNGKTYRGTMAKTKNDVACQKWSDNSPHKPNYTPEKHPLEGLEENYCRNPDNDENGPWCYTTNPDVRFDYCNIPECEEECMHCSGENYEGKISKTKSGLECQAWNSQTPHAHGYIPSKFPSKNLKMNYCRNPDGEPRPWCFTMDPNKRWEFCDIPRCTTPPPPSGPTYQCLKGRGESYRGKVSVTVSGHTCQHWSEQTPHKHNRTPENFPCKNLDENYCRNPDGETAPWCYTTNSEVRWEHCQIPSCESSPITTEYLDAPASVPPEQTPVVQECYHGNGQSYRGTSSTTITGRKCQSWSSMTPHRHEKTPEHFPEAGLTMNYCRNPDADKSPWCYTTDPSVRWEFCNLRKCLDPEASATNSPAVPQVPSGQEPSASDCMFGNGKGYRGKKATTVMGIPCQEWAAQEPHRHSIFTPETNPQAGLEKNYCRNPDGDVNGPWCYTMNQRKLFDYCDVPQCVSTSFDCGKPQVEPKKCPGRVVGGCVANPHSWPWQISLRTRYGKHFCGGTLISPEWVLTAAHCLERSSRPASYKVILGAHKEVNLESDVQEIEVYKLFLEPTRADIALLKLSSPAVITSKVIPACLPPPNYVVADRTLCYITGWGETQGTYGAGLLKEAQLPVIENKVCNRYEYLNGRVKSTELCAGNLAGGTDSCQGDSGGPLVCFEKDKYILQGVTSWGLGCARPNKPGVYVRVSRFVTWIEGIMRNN
Sequence of protease domain of reduced human plasmin (P00747 581-810 limits assumed): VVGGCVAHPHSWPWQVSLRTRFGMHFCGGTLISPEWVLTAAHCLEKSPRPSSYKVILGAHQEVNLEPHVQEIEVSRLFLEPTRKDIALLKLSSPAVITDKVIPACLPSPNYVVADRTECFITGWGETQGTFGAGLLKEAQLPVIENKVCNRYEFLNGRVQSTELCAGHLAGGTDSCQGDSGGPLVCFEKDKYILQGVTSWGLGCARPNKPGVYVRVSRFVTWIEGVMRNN
T2 sequence (Q01177 97-581 limits assumed): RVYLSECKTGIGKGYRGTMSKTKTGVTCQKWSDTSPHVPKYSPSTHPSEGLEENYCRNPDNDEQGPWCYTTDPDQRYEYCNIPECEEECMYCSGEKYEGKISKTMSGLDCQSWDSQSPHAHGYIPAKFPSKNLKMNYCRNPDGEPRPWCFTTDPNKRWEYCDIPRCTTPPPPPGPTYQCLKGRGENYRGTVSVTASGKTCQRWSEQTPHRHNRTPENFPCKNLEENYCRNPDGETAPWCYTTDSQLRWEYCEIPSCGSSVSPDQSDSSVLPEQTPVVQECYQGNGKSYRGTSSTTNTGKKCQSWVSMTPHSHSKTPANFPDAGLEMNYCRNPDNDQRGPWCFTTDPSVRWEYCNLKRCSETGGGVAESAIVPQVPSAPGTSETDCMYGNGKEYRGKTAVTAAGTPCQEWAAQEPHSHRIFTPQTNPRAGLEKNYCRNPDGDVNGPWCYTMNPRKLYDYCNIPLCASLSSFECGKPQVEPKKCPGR
T2 sequence (Q01177 582-812 limits assumed): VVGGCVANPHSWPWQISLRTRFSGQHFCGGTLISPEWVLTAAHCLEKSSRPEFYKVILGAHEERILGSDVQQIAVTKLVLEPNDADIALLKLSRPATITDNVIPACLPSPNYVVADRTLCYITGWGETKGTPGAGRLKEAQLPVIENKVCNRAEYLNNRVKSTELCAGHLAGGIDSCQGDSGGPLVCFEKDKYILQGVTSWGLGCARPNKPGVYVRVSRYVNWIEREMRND
T3 sequence (P06868 104-583 limits assumed): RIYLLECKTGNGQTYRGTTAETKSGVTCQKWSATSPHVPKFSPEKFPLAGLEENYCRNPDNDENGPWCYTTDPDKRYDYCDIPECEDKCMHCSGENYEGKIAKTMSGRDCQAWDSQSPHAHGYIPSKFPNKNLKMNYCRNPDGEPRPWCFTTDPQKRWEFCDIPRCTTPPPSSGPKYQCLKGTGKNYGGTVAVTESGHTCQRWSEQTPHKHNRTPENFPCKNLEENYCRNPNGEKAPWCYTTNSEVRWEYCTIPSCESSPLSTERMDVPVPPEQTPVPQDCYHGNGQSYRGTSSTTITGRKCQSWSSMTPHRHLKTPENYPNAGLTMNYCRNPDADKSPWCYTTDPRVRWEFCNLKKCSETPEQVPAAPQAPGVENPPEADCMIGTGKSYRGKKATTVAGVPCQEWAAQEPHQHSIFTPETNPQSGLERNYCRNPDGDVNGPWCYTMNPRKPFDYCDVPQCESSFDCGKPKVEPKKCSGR
T3 sequence (P06868 584-812 limits assumed): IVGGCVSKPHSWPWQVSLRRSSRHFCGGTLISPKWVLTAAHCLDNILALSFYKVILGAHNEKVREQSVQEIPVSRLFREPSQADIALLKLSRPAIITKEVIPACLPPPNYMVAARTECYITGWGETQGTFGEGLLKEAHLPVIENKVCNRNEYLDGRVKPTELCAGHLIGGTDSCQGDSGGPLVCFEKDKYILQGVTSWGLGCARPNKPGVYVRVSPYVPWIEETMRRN
T4 sequence (P00747 97-580 limits assumed): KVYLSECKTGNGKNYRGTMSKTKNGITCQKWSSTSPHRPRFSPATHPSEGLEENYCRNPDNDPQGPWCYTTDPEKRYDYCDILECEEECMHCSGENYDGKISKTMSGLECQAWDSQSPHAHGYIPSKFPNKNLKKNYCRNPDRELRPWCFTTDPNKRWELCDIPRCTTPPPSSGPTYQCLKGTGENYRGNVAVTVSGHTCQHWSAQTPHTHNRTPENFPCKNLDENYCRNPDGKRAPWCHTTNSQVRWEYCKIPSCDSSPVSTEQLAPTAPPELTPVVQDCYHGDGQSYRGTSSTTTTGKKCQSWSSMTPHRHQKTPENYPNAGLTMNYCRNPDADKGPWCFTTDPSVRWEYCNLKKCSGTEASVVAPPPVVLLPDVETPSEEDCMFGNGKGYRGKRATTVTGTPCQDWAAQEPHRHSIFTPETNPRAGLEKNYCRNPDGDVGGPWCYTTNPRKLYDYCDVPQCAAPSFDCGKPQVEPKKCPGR
T4 sequence (P00747 581-810 limits assumed): as the sequence (P00747 581-810 limits assumed) above
T5 sequence (P06867 97-579 limits assumed): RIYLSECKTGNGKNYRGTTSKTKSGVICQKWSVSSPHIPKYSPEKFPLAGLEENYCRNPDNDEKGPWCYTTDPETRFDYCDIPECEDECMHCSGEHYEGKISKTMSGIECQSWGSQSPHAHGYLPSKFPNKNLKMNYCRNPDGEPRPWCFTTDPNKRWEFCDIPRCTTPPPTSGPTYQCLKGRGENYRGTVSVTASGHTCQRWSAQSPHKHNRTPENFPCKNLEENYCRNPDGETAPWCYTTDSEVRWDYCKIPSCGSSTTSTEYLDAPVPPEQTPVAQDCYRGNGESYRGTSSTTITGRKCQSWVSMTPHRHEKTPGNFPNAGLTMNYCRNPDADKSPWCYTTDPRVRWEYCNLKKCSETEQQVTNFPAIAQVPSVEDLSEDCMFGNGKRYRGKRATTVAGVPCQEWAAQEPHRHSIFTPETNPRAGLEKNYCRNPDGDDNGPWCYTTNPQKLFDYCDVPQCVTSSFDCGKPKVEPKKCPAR
T5 sequence (P06867 580-809 limits assumed): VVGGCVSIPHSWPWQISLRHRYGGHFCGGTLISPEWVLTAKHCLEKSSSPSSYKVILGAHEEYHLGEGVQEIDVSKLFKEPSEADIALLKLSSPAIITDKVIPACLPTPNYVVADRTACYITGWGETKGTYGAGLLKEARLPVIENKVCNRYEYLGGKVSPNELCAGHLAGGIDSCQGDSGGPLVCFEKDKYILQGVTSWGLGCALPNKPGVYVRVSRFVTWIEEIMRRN

inhibition of clot lysis by Pi molecular forms (human plasma clots): effectively inhibited clot lysis
effect on plasmin activity generated by urokinase [3]: did not inhibit plasmin activity
effect on plasmin activity generated by urokinase [4]: did not inhibit plasmin activity
effect on plasmin activity generated by urokinase [5]: did not inhibit plasmin activity
effect on plasmin activity generated by urokinase [6]: did not inhibit plasmin activity
effect on plasmin activity generated by urokinase [7]: did not inhibit plasmin activity
effect on plasmin activity generated by urokinase [8]: did not inhibit plasmin activity
effect on plasmin activity generated by urokinase (plasmin in human plasma): suppressed plasmin
effect on plasmin activity generated by urokinase [9]: did not inhibit plasmin activity
effect on plasmin activity generated by urokinase [10]: did not inhibit plasmin activity
effect on plasmin activity generated by urokinase [11]: did not inhibit plasmin activity
B1: Pi: mouse monoclonal antibody plasmin inhibitor binding plasmin protease domain loops 4 and 5; LC SEQ ID NO:1, HC SEQ ID NO:4 (antibody)
heavy: EVKLLESGGGLVQPGGSLKLSCAASGFDFSRYWMSWVRQAPGKGLEWIGEINPDSSTINYTPSLKDKFIISRDNAKNSLYLQMSKVRSEDTALYYCASYCGYSYDALDCWGQGTSVTVSSAKTTPPSVYPLAPGSAAQTNSMVTLGCLVKGYFPEPVTVTWNSGSLSSGVHTFPAVLQSDLYTLSSSVTVPSSTWPSETVTCNVAHPASSTKVDKKIVPRDCGCKPCICTVPEVSSVFIFPPKPKDVLTITLTPKVTCVVVDISKDDPEVQFSWFVDDVEVHTAQTQPREEQFNSTFRSVSELPIMHQDWLNGKEFKCRVNSVAFPAPIEKTISKTKGRPKAPQVYTIPPPKEQMAKDKVSLTCMITDFFPEDITVEWQWNGQPAENYKNTQPIMDTDGSYFVYGKLNVQKSNWEAGNTFTCSVLHEGLHNHHTEKSLSHSPGK
light: DIQMTQSPSSLSASLGGKVSITCKASQDINKYISWYQHKPGKGPRLLIHYTSTLQPGIPSRFSGSGSGRDYSFSISNLEPEDIATYYCLQYDNLYTFGGGTKLEIKRADAAPTVSIFPPSSEQLTSGGASVVCFLNNFYPKDINVKWKIDGSERQNGVLNSWTDQDSKDSTYSMSSTLTLTKDEYERHNSYTCEATHKTSTSPIVKSFNWNEC
binding by immunoblotting [1]: bound specifically to the protease domain of plasmin
suppression of bleeding time vs controls (fibrinolytic bleeding): > 80%
suppression of blood loss vs controls (fibrinolytic bleeding): > 85%
effect on fibrinolysis of human fibrin clots [2]: significantly suppressed
